This note sets out measurements from article PMC7913688, “Human Rev1 relies on insert-2 to promote selective binding and accurate replication of stabilized G-quadruplex motifs”.

What is called Kd is a measure of binding affinity in units of concentration.

Data set [1] has as its target T1, hRev1 330-833 polymerase core (human, UniProt Q9UBZ9 330-833).
T1 sequence: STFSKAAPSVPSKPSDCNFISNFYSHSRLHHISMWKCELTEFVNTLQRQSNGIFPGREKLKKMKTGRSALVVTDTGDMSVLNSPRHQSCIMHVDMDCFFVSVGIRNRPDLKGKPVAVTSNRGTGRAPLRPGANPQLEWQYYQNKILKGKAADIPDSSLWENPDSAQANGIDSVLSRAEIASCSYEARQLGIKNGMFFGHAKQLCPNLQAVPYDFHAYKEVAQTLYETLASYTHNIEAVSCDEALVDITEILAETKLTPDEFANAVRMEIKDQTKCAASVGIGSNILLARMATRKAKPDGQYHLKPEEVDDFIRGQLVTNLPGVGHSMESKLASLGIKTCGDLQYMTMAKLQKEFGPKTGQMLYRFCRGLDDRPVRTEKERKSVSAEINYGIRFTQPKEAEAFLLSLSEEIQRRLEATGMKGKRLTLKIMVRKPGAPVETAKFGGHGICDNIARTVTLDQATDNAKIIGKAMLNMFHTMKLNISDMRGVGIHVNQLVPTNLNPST
In words: fluorescence polarization; 100 mM KCl; Fluorescence polarization: 1 nM FAM-DNA, 100 mM KCl or LiCl; DNA annealed in 50 mM HEPES pH 7.5; full buffer as in cited ref 17, temperature not stated. Footprinting: 50 mM HEPES pH 7.5, 100 mM KCl, 10 uM protein, 30 uM ssDNA, room temperature. Conditions: protein: recombinant. On the technique in general: Fluorescence polarisation rises when a labelled molecule tumbles more slowly, as on binding a larger partner.

Data set [2] deals with T1, hRev1 330-833 polymerase core. In words: fluorescence polarization; 100 mM LiCl; Fluorescence polarization: 1 nM FAM-DNA, 100 mM KCl or LiCl; DNA annealed in 50 mM HEPES pH 7.5; full buffer as in cited ref 17, temperature not stated. Footprinting: 50 mM HEPES pH 7.5, 100 mM KCl, 10 uM protein, 30 uM ssDNA, room temperature. To be noted: protein: recombinant; label: 5'-FAM.

Data set [3] has the same target. In words: fluorescence polarization; 100 mM LiCl (text: 139 +/- 17); Fluorescence polarization: 1 nM FAM-DNA, 100 mM KCl or LiCl; DNA annealed in 50 mM HEPES pH 7.5; full buffer as in cited ref 17, temperature not stated. Footprinting: 50 mM HEPES pH 7.5, 100 mM KCl, 10 uM protein, 30 uM ssDNA, room temperature. Conditions: protein: recombinant; label: 5'-FAM; antiparallel G4 in K+.

Data set [4] shares this target. The data set can be described thus: fluorescence polarization; 100 mM KCl (text: 127 +/- 14); Fluorescence polarization: 1 nM FAM-DNA, 100 mM KCl or LiCl; DNA annealed in 50 mM HEPES pH 7.5; full buffer as in cited ref 17, temperature not stated. Footprinting: 50 mM HEPES pH 7.5, 100 mM KCl, 10 uM protein, 30 uM ssDNA, room temperature. To be noted: protein: recombinant; label: 5'-FAM; antiparallel G4 in K+.

The target is the same in data set [5]. In words: fluorescence polarization; 100 mM KCl (text: 406 +/- 38); Fluorescence polarization: 1 nM FAM-DNA, 100 mM KCl or LiCl; DNA annealed in 50 mM HEPES pH 7.5; full buffer as in cited ref 17, temperature not stated. Footprinting: 50 mM HEPES pH 7.5, 100 mM KCl, 10 uM protein, 30 uM ssDNA, room temperature. To be noted: protein: recombinant; label: 5'-FAM; hybrid G4 in K+.

For data set [6] the target is unchanged. In words: fluorescence polarization; 100 mM KCl (text: 1246 +/- 196); Fluorescence polarization: 1 nM FAM-DNA, 100 mM KCl or LiCl; DNA annealed in 50 mM HEPES pH 7.5; full buffer as in cited ref 17, temperature not stated. Footprinting: 50 mM HEPES pH 7.5, 100 mM KCl, 10 uM protein, 30 uM ssDNA, room temperature. To be noted: protein: recombinant; label: 5'-FAM.

[7] abbreviates: label: 5'-FAM on template, parallel G4 in 5' overhang 18 nt, 11 bp duplex.

As to AGCGCGCGGCCGGCGAGCGTATGAGATGAT (ssDNA) [Non-G4 Rev1-prom control ss], the values for the equilibrium dissociation constant (Kd) in data set [1] (label: 5'-FAM) and in data set [2] were 370 ± 70 nM and 260 ± 120 nM, respectively.
As to AGGGAGGGTGGGAAGGGTTATGAGATGAT (structured_DNA) [Myc 2/11 ss G4], the Kd in data set [1] (label: 5'-FAM, parallel G4 (1:1:2 loops) in K+) was 22 ± 3 nM.
In the case of AGGGCGGGGCCGGGGAGGGTATGAGATGAT (structured_DNA) [Rev1-prom ss G4], the Kd in data set [1] (label: 5'-FAM, parallel G4 (1:4:1 loops as stated) in K+) is 13 ± 3 nM.

B1: Non-G4 Rev1-prom primer-template (mixed)
DNA 1: AGCGCGCGGCCGGCGAGCGTATGAGATGAT
DNA 2: ATCATCTCATA
Take B1: the Kd in data set [1] (label: 5'-FAM on template, 5' overhang 19 nt, 11 bp duplex) was found to be 154 ± 30 nM.
Consider TGGTTGGTGTGGTTGGTATGAGATGAT (structured_DNA) [TBA ss G4], for which the Kd in data set [3] came to 140 ± 20 nM; in data set [4], 130 ± 10 nM.

B2: Myc 14/23 primer-template (mixed)
DNA 1: AGGGTGGGTAGGGTGGGTTATGAGATGAT
DNA 2: ATCATCTCATA
In the case of B2, the Kd in data set [1] (setting [7]) turned out to be 59 ± 9 nM.
On to AGCGCGCTGTGCGAAGAGCGAATATGAGATGAT (ssDNA) [Non-G4 KRAS control ss], for which the dissociation constant Kd was determined as 840 ± 90 nM in data set [1] (label: 5'-FAM) and 1620 ± 800 nM in data set [2].

B3: Non-G4 KRAS primer-template (mixed)
DNA 1: AGCGCGCTGTGCGAAGAGCGAATATGAGATGAT
DNA 2: ATCATCTCATA
In the case of B3, the Kd in data set [1] (label: 5'-FAM on template, 5' overhang 22 nt, 11 bp duplex) was 1120 ± 80 nM.
As to AGGGCGGTGTGGGAAGAGGGAATATGAGATGAT (structured_DNA) [KRAS 22RT ss G4], the Kd in data set [1] (label: 5'-FAM, parallel G4 in K+) amounted to 52 ± 10 nM.

B4: KRAS 22RT primer-template (mixed)
DNA 1: AGGGCGGTGTGGGAAGAGGGAATATGAGATGAT
DNA 2: ATCATCTCATA
For the molecule B4, the Kd in data set [1] (label: 5'-FAM on template, parallel G4 in 5' overhang 22 nt, 11 bp duplex) was found to be 120 ± 10 nM.

B5: Myc 2/11 primer-template (mixed)
DNA 1: AGGGAGGGTGGGAAGGGTTATGAGATGAT
DNA 2: ATCATCTCATA
For B5, the Kd in data set [1] (setting [7]) turned out to be 45 ± 6 nM.
AGCGGCGCGCGCTTTAGGAAAAGCGCGCGTTATGAGATGAT (ssDNA) [Non-G4 Bcl2 control ss]: the values for the equilibrium dissociation constant (Kd) in data set [1] (label: 5'-FAM) and in data set [2] were 830 ± 310 nM and 750 ± 340 nM, respectively.
Consider AGGGGCGGGCGCTTTAGGAAAAGGGCGGGTTATGAGATGAT (structured_DNA) [Bcl2 1245 ss G4], for which the equilibrium dissociation constant (Kd) in data set [1] (label: 5'-FAM, parallel G4 (13-nt loop) in K+) is 76 ± 16 nM.

B6: Bcl2 1245 primer-template (mixed)
DNA 1: AGGGGCGGGCGCTTTAGGAAAAGGGCGGGTTATGAGATGAT
DNA 2: ATCATCTCATA
Take B6: in data set [1] (label: 5'-FAM on template, parallel G4 in 5' overhang 30 nt, 11 bp duplex), the Kd came out at 97 ± 20 nM.

B7: Non-G4 Bcl2 primer-template (mixed)
DNA 1: AGCGGCGCGCGCTTTAGGAAAAGCGCGCGTTATGAGATGAT
DNA 2: ATCATCTCATA
As for B7, in data set [1] (label: 5'-FAM on template, 5' overhang 30 nt, 11 bp duplex), the equilibrium dissociation constant (Kd) is 660 ± 120 nM.

B8: TBA primer-template (mixed)
DNA 1: TGGTTGGTGTGGTTGGTATGAGATGAT
DNA 2: ATCATCTCATA
As for B8, the Kd in data set [1] (label: 5'-FAM on template, antiparallel G4 in 5' overhang 16 nt, 11 bp duplex) is 165 ± 25 nM.
As for TGCTTGCTGTGCTTGCTATGAGATGAT (ssDNA) [Non-G4 TBA control ss], the dissociation constant (Kd) in data set [1] (label: 5'-FAM) was 380 ± 40 nM; in data set [2] it was 310 ± 40 nM.
For TTGGGTTAGGGTTAGGGTTAGGGATATGAGATGAT (structured_DNA) [hTelo-4 ss G4], the Kd in data set [5] was determined as 410 ± 40 nM.
As for TTGCGTTAGCGTTAGCGTTAGCGATATGAGATGAT (ssDNA) [Non-G4 Telo-4 control ss], the results for the Kd in data set [6] and in data set [2] were 1200 ± 200 nM and 920 ± 120 nM, respectively.

B9: hTelo-4 primer-template (mixed)
DNA 1: TTGGGTTAGGGTTAGGGTTAGGGATATGAGATGAT
DNA 2: ATCATCTCATA
As to B9, the Kd in data set [1] (label: 5'-FAM on template, hybrid G4 in 5' overhang 24 nt, 11 bp duplex) is 840 ± 50 nM.

B10: Rev1-prom primer-template (mixed)
DNA 1: AGGGCGGGGCCGGGGAGGGTATGAGATGAT
DNA 2: ATCATCTCATA
As to B10, the Kd in data set [1] (label: 5'-FAM on template, parallel G4 in 5' overhang 19 nt, 11 bp duplex) is 11 ± 2 nM.
